Test results from publication PMC11297931 (2024).

T1: doubly T-loop phosphorylated Cdk7/Cyclin H/Mat1_(230-309) ternary complex (human, UniProt P50613 2-346; P51946 1-323; P51948 230-309, phosphoserine at 164; phosphothreonine at 170 | M1 acetylated)
T1 chain 1: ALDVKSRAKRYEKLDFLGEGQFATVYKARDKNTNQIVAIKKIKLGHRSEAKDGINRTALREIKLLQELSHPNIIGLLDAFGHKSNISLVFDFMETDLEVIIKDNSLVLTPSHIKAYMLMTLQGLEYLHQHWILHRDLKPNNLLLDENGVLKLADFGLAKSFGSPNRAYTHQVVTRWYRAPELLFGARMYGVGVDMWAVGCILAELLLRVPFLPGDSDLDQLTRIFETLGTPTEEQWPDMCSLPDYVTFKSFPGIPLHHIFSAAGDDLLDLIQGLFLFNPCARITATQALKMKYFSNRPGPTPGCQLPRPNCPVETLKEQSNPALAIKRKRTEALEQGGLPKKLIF
T1 chain 2: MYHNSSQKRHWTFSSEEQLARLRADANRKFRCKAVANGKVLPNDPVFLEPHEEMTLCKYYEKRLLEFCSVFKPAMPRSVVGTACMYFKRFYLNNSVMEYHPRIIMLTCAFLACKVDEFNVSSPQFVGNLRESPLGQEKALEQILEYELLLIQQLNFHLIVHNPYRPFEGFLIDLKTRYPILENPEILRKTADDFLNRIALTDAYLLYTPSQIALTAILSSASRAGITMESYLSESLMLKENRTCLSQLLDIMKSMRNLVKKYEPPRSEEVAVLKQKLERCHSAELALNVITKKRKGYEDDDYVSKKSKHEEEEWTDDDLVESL
T1 chain 3: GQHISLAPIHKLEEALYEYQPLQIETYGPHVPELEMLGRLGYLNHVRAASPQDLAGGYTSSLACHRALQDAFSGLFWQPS


Key:
Test in all cases: SPR
[1] = biological target: T1, doubly T-loop phosphorylated …
[2] = biological target: Cdk7(S164E)/Cyclin H binary complex (human, UniProt P50613 2-346; P51946 1-323, S164E, phosphothreonine at 170)
[3] = biological target: Cdk7(S164A)/Cyclin H binary complex (human, UniProt P50613 2-346; P51946 1-323, S164A, phosphothreonine at 170)

Row | Binder | Kd [1] [nM] | Kd [2] [nM] | Kd [3] [nM]
1 | VHH_(RD7-04), form for biochemical studies (VHH) VHH: QVQLVESGGGLVQPGGSLRLSCVASGFTFKNFYMGWVRQAPDKGLEWVATINSGGEIQSYADSVKGRFTISRDNAKNTLYLQMNNLRPEDTAVYYCSKQSSTPAKGQGTQVTVSS | 0.6 |  | 
2 | MBP-Mat1_(230-309) (domain or fragment) GQHISLAPIHKLEEALYEYQPLQIETYGPHVPELEMLGRLGYLNHVRAASPQDLAGGYTSSLACHRALQDAFSGLFWQPS |  | 7.3 | 10.8
